Non-standard residues stand in square brackets, D forms with d. No end group written: not given here. Aib = CC(C)(N)C(=O)O
T1: human GIP receptor (Homo sapiens, UniProt P48546)
T1 construct: expressed in transfected cells; host or cells: CHO (Chinese hamster ovary) cells
T1 sequence (P48546 22-466): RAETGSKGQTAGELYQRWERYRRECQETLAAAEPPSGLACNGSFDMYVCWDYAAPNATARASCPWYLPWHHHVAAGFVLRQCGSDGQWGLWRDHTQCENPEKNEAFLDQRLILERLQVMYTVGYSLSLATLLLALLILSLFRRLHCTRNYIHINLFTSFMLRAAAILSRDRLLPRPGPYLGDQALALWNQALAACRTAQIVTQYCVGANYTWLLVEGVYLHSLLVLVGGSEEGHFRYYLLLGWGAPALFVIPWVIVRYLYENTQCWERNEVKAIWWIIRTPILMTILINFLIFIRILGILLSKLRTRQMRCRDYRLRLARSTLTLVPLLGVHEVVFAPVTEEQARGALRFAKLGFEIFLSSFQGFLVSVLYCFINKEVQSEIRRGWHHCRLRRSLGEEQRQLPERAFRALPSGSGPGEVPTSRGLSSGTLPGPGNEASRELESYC

T2: human GIP receptor (human, UniProt P48546 22-466)
T2 sequence (looked up): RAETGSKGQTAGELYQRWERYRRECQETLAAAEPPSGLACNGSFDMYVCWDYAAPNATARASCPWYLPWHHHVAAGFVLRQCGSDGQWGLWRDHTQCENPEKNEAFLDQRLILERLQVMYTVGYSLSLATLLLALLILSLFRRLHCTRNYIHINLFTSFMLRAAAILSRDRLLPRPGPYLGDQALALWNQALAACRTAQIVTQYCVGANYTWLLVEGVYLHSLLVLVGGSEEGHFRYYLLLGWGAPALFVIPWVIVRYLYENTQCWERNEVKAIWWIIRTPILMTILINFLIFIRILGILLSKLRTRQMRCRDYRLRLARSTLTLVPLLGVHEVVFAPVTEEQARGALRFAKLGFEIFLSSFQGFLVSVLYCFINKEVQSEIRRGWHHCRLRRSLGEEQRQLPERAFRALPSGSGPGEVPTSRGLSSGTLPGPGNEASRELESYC


What was measured:
human GIP receptor [1] = biological target: T1, human GIP receptor; assay: In vitro activity of long-acting GIP conjugate: cAMP accumulation (LANCE cAMP kit) in CHO cells expressing human GIP receptor; assay type: cell-based; conditions: relative potency from cAMP EC50 vs human GIP, PEG-immunoglobulin Fc conjugates
Protocol: To measure the activity of the long-acting GIP conjugates prepared in Example 3, a method of measuring cell activity in vitro using a cell line transformed with the GIP receptor was used in the same manner as in Example 2.
In detail, to measure the activity of the long-acting GIP derivatives in the human GIP receptors, human GIP was serially diluted from 16 nM to 0.000015 nM by 4 folds, and the long-acting GIP derivatives prepared in Example 1 were each serially diluted from 50 nM to 0.000048 nM by 4 folds. The culture medium was removed from the cultured CHO cells where the human GIP receptors were expressed, 5 μl of each of the serially diluted materials was added to the cells, and then, 5 μl of buffer containing cAMP antibody was added thereto, followed by incubation at room temperature for 15 minutes. Next, the cells were lysed by adding 10 μl of detection mix containing cell lysis buffer, and then allowed for a reaction at room temperature for 90 minutes. The cell lysate obtained by the completion of the reaction was applied to the LANCE cAMP kit (PerkinElmer, USA) to calculate the EC50 value through the accumulated cAMP to be compared with each other.

human GIP receptor [2] = biological target: T2, human GIP receptor; assay: cell-based or functional assay

Molecule	In vitro activity of long-acting GIP derivative compared to human native GIP in human GIP receptor (%) (human GIP receptor [1])	In vitro activity of GIP derivative compared to human native GIP in human GIP receptor (%) (cAMP EC50, CHO cells expressing human GIP receptor) (human GIP receptor [2])
YAibEGT FISDYSIALEKQAQQDFVNWLLAGGPSSGAPPPSC (Y[Aib]EGTFISDYSIALEKQAQQDFVNWLLAGGPSSGAPPPSC) [SEQ ID NO: 17]	153.2%	
YAibEGT FISDYSIAMDAIAQQDFVNWLLAQKGKKNDWKHNITQC (Y[Aib]EGTFISDYSIAMDAIAQQDFVNWLLAQKGKKNDWKHNITQC) [SEQ ID NO: 11]	84.8%	
YAibEGT FISDY SIAibLD KQAAAib EFVNW LLAibGG PSSGA PPPSC (Y[Aib]EGTFISDYSI[Aib]LDKQAA[Aib]EFVNWLL[Aib]GGPSSGAPPPSC) [SEQ ID NO: 21]	148.5%	
YAibEGT FISDY SIAibLD KQAAAib EFVNW LLAibGH PSSGA PPPSC (Y[Aib]EGTFISDYSI[Aib]LDKQAA[Aib]EFVNWLL[Aib]GHPSSGAPPPSC) [SEQ ID NO: 24]	123.3%	
Y[Aib]EGTFISDYSIYMDAIAQQDFVNWLLAGGPSSGAPPPSC (not fully specified) [GIP derivative of SEQ ID NO: 4]		10.5%
Y[Aib]EGTFISDYSIYLDAQAAKDFVNWLLAGGPSSGAPPPSC (not fully specified) [GIP derivative of SEQ ID NO: 9]		2%
Y[Aib]EGTFISDYSIYLDKQAA[Aib]EFVNWLLAGHPSSGAPPPSC (not fully specified) [GIP derivative of SEQ ID NO: 22]		71.6%
Y[Aib]EGTFISDYSI[Aib]MDAIAQQDFVNWLLAGGPSSGAPPPSC (not fully specified) [GIP derivative of SEQ ID NO: 3]		15.6%
Y[Aib]EGTFISDYSIYLDKQAA[Aib]EFVQWLI[Aib]GGPSSGAPPPSC (not fully specified) [GIP derivative of SEQ ID NO: 25]		78.3%
Y[Aib]EGTFISDYSIAMDAIAQQDFVNWLLAQKPSSGAPPPSC (not fully specified) [GIP derivative of SEQ ID NO: 1]		49.3%
Y[Aib]EGTFISDYSIYLDKQAA[Aib]EFVNWLL[Aib]GGPSSGAPPPSC (not fully specified) [GIP derivative of SEQ ID NO: 20]		75.3%
Y[Aib]EGTFISDYSIQMDAIAQQDFVNWLLAGGPSSGAPPPSC (not fully specified) [GIP derivative of SEQ ID NO: 5]		12.1%
Y[Aib]EGTFISDYSIYLDAIAQQDFVNWLLAGGPSSGAPPPSC (not fully specified) [GIP derivative of SEQ ID NO: 6]		17.4%
Y[Aib]EGTFISDYSIYLDKQAA[Aib]EFVNWLL[Aib]GHPSSGAPPPSC (not fully specified) [GIP derivative of SEQ ID NO: 19]		66.7%
Y[Aib]EGTFISDYSIYLDAQAQQDFVNWLLAGGPSSGAPPPSC (not fully specified) [GIP derivative of SEQ ID NO: 7]		19.6%
Y[Aib]EGTFISDYSIAMDAIAQQDFVNWLLAGGPSSGAPPPSC (not fully specified) [GIP derivative of SEQ ID NO: 2]		13.9%
Y[Aib]EGTFISDYSIAMDGIAQQDFVNWLLAQKPSSGAPPPSC (not fully specified) [GIP derivative of SEQ ID NO: 16]		11.3%
Y[Aib]EGTFISDYSIYLDKQAQKEFVNWLL[Aib]GGPSSGAPPPSC (not fully specified) [GIP derivative of SEQ ID NO: 23]		87.6%
Y[Aib]EGTFISDYSIYLDKQAAQEFVNWLLAQKPSSGAPPPSC (not fully specified) [GIP derivative of SEQ ID NO: 18]		13.6%
Y[Aib]EGTFISDYSIALEKQAQQDFVNWLLAGGPSSGAPPPSC (not fully specified) [GIP derivative of SEQ ID NO: 17]		111%
Y[Aib]EGTFISDYSIYLDKQAA[Aib]EFVQWLIAGHPSSGAPPPC (not fully specified) [GIP derivative of SEQ ID NO: 26]		66.7%
Y[Aib]EGTFISDYSIYLDKQAA[Aib]EFVNWLLAQKGKKNDWKHNITQC (not fully specified) [GIP derivative of SEQ ID NO: 12]		49.2%
Y[Aib]EGTFISDYSIAMDAIAQQDFVNWLLAQKGKKNDWKHNITQC (not fully specified) [GIP derivative of SEQ ID NO: 11]		122%
Y[Aib]EGTFISDYSI[Aib]LDKQAA[Aib]EFVNWLL[Aib]GHPSSGAPPPSC (not fully specified) [GIP derivative of SEQ ID NO: 24]		183%
Y[Aib]EGTFISDYSIYLDAQAA[Aib]EFVNWLLAQKC (not fully specified) [GIP derivative of SEQ ID NO: 14]		17.4%
Y[Aib]EGTFISDYSIAMDKIAQQDFVNWLLAQKPSSGAPPPSC (not fully specified) [GIP derivative of SEQ ID NO: 15]		31.1%
Y[Aib]EGTFISDYSIYLDAQAA[Aib]DFVNWLLAGGPSSGAPPPSC (not fully specified) [GIP derivative of SEQ ID NO: 8]		1.9%
Y[Aib]EGTFISDYSIYLDAQAAKEFIAWLLAGGPSSGAPPPSC (not fully specified) [GIP derivative of SEQ ID NO: 10]		13.9%
Y[Aib]EGTFISDYSI[Aib]LDKQAA[Aib]EFVNWLL[Aib]GGPSSGAPPPSC (not fully specified) [GIP derivative of SEQ ID NO: 21]		123%
Y[Aib]EGTFISDYSIYLDKQAA[Aib]EFVNWLLAQKC (not fully specified) [GIP derivative of SEQ ID NO: 13]		31.1%

From patent US20230381279A1, “PHARMACEUTICAL COMPOSITION FOR PREVENTING OR TREATING LUPUS-RELATED DISEASES COMPRISING GIP DERIVATIVE OR LONG-ACTING CONJUGATE THEREOF” (HANMI PHARM. CO., LTD., priority 2020, published 2023)
